The target in data set [1] is GST-tagged full-length S. cerevisiae Pus4 (S. cerevisiae) (UniProt P48567). Nature of the data set: sucrose gradient ultracentrifugation; 10 uM purified GST-Pus4 with and without 10 uM total yeast tRNA, 30 min at room temperature; 10-30% sucrose step gradient in Buffer B (50 mM Tris-HCl pH 7.5, 100 mM KCl), SW 55 Ti, 4 h at 55,000 rpm; fractions read by SDS-PAGE; standards beta-amylase and carbonic anhydrase; apparent molecular ….

For data set [2], the target named is T1, GST-Pus4 (Saccharomyces cerevisiae, UniProt P48567 1-403). Nature of the data set: smFRET / PIFE; 200 nM Pus4; BLI: 50 mM Tris-HCl pH 7.5, 100 mM KCl, 0.02% Tween-20, 30 °C; EMSA: 50 mM Tris-HCl pH 7.5, 100 mM KCl, 30 min room temperature, 8% native PAGE in TBE at 4 °C. The note with it: protein: recombinant; tags: N-terminal GST, Factor Xa site (pGEX-5X-3); tag not removed; label: 5' biotin; Cy3 at U4 C5; Cy5 at U41 C5; tRNA cloverleaf. (Mobility shift assays separate free from complexed probe on a gel.)
T1 sequence (P48567 whole entry): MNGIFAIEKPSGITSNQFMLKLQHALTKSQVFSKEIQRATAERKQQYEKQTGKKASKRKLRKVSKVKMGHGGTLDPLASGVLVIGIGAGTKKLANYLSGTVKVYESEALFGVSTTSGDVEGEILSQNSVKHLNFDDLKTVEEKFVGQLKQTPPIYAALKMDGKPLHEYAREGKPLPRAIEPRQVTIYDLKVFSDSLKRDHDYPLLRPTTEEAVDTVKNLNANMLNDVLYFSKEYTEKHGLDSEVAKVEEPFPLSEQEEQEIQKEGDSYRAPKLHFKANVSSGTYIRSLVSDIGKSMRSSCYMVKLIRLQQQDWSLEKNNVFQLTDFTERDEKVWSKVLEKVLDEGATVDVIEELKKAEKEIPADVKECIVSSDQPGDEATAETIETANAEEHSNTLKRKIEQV

Data set [3] deals with T1, GST-Pus4. Nature of the data set: EMSA; 30 nM RNA; all bound at >=200 nM Pus4, 30 min; labelled form assumed; BLI: 50 mM Tris-HCl pH 7.5, 100 mM KCl, 0.02% Tween-20, 30 °C; EMSA: 50 mM Tris-HCl pH 7.5, 100 mM KCl, 30 min room temperature, 8% native PAGE in TBE at 4 °C. Conditions: protein: recombinant; tags: N-terminal GST, Factor Xa site (pGEX-5X-3); tag not removed; label: 5' biotin; Cy3 at U4 C5; Cy5 at U41 C5; tRNA cloverleaf.

Consider “GST-tagged full-length S. cerevisiae Pus4 (from UniProt P48567 1-403) (enzyme)”, for which the stoichiometry N in data set [1] was found to be 2.

B1: Ψ55 tRNA eMet(CAU), Cy3/Cy5 (structured_RNA)
RNA: GCUUCAGUAGCUCAGUAGGAAGAGCGUCAGUCUCAUAAUCUGAAGGUCGAGAGUUCGAACCUCCCCUGGAGCACCA
modifications: pseudouridine at position 55 (second U of GAGAGUUCGAA)
Turning to B1, the binding result in the data set with GST-Pus4 [2] is “binds”.

B2: U55 tRNA eMet(CAU), Cy3/Cy5 (structured_RNA)
RNA: B1 RNA
For the molecule B2, in the data set with GST-Pus4 [3], the binding result is “binds”.

A word on the stoichiometry N: it is the number of molecules, sites or subunits per partner or assembly.

Values taken from article PMC13270999, “Chronology of tRNA structural dynamics prior to and during interaction with a pseudouridine synthase”.
